US20110144038A1 (FRESENIUS MEDICAL CARE DEUTSCHLAND G M B H, published 2011)
Blank lines part the entries; values can stand above or below the binder they belong to. Positions of bridges follow the written chain, without caps; N, C: chain ends. No end group written: not given here.

Key:
[1] = biological target: T1, human CD154 expressed on the cell surface of J558L cells (murine myeloma cell line transfected with human … (human, UniProt P29965 1-261)); assay: flow cytometry, -His6 peptide on J558L cells, PE anti-His6 antibody
T1 construct: whole, on cells; also called CD40L; CD40 ligand
T1 sequence (looked up): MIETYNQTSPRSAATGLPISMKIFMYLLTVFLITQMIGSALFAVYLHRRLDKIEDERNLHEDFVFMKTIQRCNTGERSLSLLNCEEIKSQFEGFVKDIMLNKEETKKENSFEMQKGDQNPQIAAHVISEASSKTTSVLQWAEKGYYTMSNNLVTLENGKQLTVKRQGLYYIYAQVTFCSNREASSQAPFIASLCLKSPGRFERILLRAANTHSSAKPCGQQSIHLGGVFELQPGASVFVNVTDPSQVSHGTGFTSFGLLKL
Experimental: FIG. 2 represents the binding of the seven peptides obtained from the human CD154-binding clones and tagged with a 6 histidines tail (-His₆) to the J558L CD154⁺ cells. […] The cells were incubated with each of the -His₆-tagged peptides and then with a phycoerythrin-conjugated secondary antibody specific for the-His₆ tail. […] For each experimental condition, 10,000 events were analyzed and the values are the mean and standard deviation of 3 different experiments. All of the peptides are capable of specifically binding to the CD154 on the J558L CD154⁺ cells and are not capable of binding to the control J558 cells.
The peptides were synthesized and conjugated with biotin (-bio) or with a 6-histidine tail (-his₆) so as to enable in vitro and in vivo localization. […] Furthermore, a competition assay between the peptides and an anti-human CD154 fluorescein-conjugated antibody (Serotec) specifically recognizing the active site of CD154 was carried out. The J558L cells were incubated with the his₆-peptides for 30 minutes at room temperature and then with anti-human CD154 fluorescein-conjugated antibody for another 30 minutes at room temperature.

[2] = biological target: T1, human CD154 expressed on the cell …; assay: binding to J558L cells
Experimental: The murine myeloma cells transfected with human CD154, J558L, were incubated with each of the seven anti-CD154 peptides tagged with a 6 histidines tail (-His₆), and then with the anti-CD154 fluorescein-conjugated antibody. The ability of the peptides to compete with the anti-CD154 antibody for the binding to the CD154 molecule expressed on the surface of the J558L cells was evaluated by flow cytometry, as the reduction in the fluorescence intensity compared to the positive control represented by cells incubated with the anti-human CD154 fluorescein-conjugated antibody alone. […] The amino acid sequence of the control peptide differs from that of peptide 4.10 in that an arginine residue is replaced with an alanine residue at amino acid position 5.
The peptides were synthesized and conjugated with biotin (-bio) or with a 6-histidine tail (-his₆) so as to enable in vitro and in vivo localization. […] Furthermore, a competition assay between the peptides and an anti-human CD154 fluorescein-conjugated antibody (Serotec) specifically recognizing the active site of CD154 was carried out.

[3] = biological target: T1, human CD154 expressed on the cell …; assay: binding to CD154+ J558L cells

binding result [2]: no binding
B2: control peptide 4.10-ala (peptide)
peptide: CLPTAHMAC
notes: also called peptide 4.10 with alanine at position 5

binding result [3]: no binding
Binder: CLPTRWMAC [modified peptide 4.104]

binding result [3]: no binding
Binder: CLPSRHMAC [modified peptide 4.102]

binding result [1]: binds
B10: peptide 4.7 = 4.12 tagged with a 6 histidines tail (-His6) (peptide)
peptide: CTPGKPHSCHHHHHH
modifications: disulfide 1-9
notes: Synthetic peptide; also called -his6 peptide

binding result [3]: no binding
Binder: CIPTRHMVC [modified peptide 4.103]

The remaining lines, values behind:

B1: peptide 4.4 tagged with a 6 histidines tail (-His6) (peptide)
peptide: CGTHSSRICHHHHHH
modifications: disulfide 1-9
notes: as for B10
binding result [1]: binds

B3: peptide 4.2 = 4.3 tagged with a 6 histidines tail (-His6) (peptide)
peptide: CPSGHTKACHHHHHH
modifications: disulfide 1-9
notes: as for B10
binding result [1]: binds

B4: peptide 4.10 tagged with a 6 histidines tail (-His6) (peptide)
peptide: CLPTRHMACHHHHHH
modifications: disulfide 1-9
notes: as for B10
binding result [1]: binds

B5: peptide 4.10 with the residue at position 6 replaced with alanine (peptide)
peptide: CLPTRAMAC
notes: also called mutated peptide (position 6)
binding result [2]: no binding

B6: peptide 4.8 tagged with a 6 histidines tail (-His6) (peptide)
peptide: CKAASANICHHHHHH
modifications: disulfide 1-9
notes: as for B10
binding result [1]: binds

B7: peptide 4.11 tagged with a 6 histidines tail (-His6) (peptide)
peptide: CLSAVHNMCHHHHHH
modifications: disulfide 1-9
notes: as for B10
binding result [1]: binds

B8: peptide 4.10 with the residue at position 4 replaced with alanine (peptide)
peptide: CLPARHMAC
notes: also called mutated peptide (position 4)
binding result [2]: no binding

B9: peptide 4.6 tagged with a 6 histidines tail (-His6) (peptide)
peptide: CLGTQNKECHHHHHH
modifications: disulfide 1-9
notes: as for B10
binding result [1]: binds

Binder: CIPTRHMAC [modified peptide 4.101]
binding result [3]: no binding
